Source: paper PMC3545708

Target: isolated HC fragment of BoNT/A (receptor-binding domain), wild type (Clostridium botulinum)
Test: ITC

full-length NTNHA-A1 (non-toxic non-hemagglutinin protein) (from UniProt Q45914 1-1193) (natural protein)
Kd: 48.3 nM
